Reference: patent US20240392037A1 (UNIVERSITY OF PITTSBURGH OF THE COMMONWEALTH SYSTEM OF …, published 2024)

Experiments:
[1] = molecular target: T1, human neutrophil elastase (NE) polypeptide (human, UniProt P08246 28-267, limits assumed); test: cell-based or functional assay
T1 sequence: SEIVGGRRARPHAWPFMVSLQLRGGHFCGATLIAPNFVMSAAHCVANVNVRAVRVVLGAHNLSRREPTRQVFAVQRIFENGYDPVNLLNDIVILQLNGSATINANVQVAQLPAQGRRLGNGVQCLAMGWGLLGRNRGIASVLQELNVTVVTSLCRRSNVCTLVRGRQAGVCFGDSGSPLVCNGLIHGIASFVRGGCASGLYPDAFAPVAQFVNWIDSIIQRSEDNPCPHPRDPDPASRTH

[2] = molecular target: T1, human neutrophil elastase (NE) …; test: ELISA, NE coated at 50 ng/well, anti-FLAG-HRP detection
Experimental: (§1) The NE polypeptide was coated in 96-well microplates at 50 ng/well in PBS at 4° C. over-night and blocked with 5% milk in PBS for 2 hours at room temperature. For the soluble Fab/VH binding assay, the 3-fold serially diluted Fab/VH were added and incubated for 1 hour at 37° C. and further incubated with anti-FLAG M2-peroxidase (HRP) antibody (A8592, Sigma-Aldrich) for another 1 hour. For the IgG₁ binding assay, HRP conjugated goat anti-human IgG₁ Fc (Sigma-Aldrich) was used for detection. Finally, the reaction was developed by 3,3′,5,5′-tetramethylbenzidine (TMB, Sigma-Aldrich) and stopped by TMB stop buffer (ScyTek laboratories). Absorbance was recorded at 450 nm. The experiment was performed in duplicate.

[3] = molecular target: T1, human neutrophil elastase (NE) …; test: as above; remark: listed apart in the source
Experimental: (§2) FIG. 12. Specificity of VH/VH-Fc and Fab/IgG1 with recombinant human NE. (A and B) Binding of Fab 1C10 (A) and VH 1D1.43 (B) to rhNE, rhMPO, and PR3 measured by ELISA. (C and D) Binding of IgG1 1C10 (C) and VH-Fc 1D1.43 (D) to rhNE, rhMPO, BSA, and PR3 measured by ELISA. rhNE, rhMPO, BSA, and PR3 were coated in 96-well microplates at 50 ng/well. Experiments were performed in duplicate. Values were reported as the mean±SD.
as §1

Proteinase 3 [4] = molecular target: T2, Proteinase 3 (UniProt P24158 28-248, limits assumed); test: ELISA, PR3 coated at 50 ng/well, anti-FLAG-HRP detection
T2 construct: Specificity control, coated at 50 ng/well in ELISA; also called PR3
T2 sequence (looked up): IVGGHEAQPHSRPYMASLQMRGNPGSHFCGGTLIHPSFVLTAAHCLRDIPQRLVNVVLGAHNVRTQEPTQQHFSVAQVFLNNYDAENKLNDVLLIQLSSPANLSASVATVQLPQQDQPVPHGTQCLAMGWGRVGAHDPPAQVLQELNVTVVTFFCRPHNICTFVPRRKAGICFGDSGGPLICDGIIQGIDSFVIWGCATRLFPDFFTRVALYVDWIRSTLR
Experimental: as §2, §1

[5] = molecular target: T1, human neutrophil elastase (NE) …; test: BLItz biolayer interferometry, NE-Biotin on streptavidin biosensor
Experimental: The affinity and avidity of anti-hNE binders were detected by biolayer interferometry BLItz (ForteBio, Menlo Park, CA). Briefly, Dulbecco's PBS (DPBS) was used to establish baseline for 30 seconds, and streptavidin biosensor (ForteBio) was coated with 16.7 μg/mL recombinant NE-Biotin for 2 minutes. […] Antigen coated biosensors with PBS served as reference controls. The dissociation was monitored in DPBS for 4 minutes.

[6] = molecular target: T3, recombinant human myeloperoxidase protein (human, UniProt P05164 49-745, limits assumed); test: ELISA, rhMPO coated at 50 ng/well, anti-FLAG-HRP detection
T3 construct: Specificity control, coated at 50 ng/well in ELISA; also called rhMPO
T3 sequence (looked up): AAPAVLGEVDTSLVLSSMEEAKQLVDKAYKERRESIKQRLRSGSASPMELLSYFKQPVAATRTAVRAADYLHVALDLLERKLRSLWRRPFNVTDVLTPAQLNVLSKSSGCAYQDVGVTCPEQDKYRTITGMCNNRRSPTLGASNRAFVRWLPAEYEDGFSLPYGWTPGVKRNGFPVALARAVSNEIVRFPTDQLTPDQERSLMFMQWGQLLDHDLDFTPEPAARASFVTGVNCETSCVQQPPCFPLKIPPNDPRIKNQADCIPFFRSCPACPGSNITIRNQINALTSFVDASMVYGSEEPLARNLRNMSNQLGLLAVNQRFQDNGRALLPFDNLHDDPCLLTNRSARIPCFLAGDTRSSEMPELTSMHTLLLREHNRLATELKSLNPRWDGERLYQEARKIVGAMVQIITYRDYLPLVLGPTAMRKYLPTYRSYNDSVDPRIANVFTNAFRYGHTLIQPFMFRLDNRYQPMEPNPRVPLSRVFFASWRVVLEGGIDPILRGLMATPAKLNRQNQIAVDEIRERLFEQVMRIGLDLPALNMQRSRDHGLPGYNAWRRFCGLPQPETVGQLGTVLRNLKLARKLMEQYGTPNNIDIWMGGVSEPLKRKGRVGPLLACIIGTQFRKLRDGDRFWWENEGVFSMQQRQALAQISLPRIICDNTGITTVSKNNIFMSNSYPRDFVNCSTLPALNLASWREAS
Experimental: as §2, §1

[7] = molecular target: T1, human neutrophil elastase (NE) …; test: ELISA, NE coated at 50 ng/well, anti-human IgG1 Fc-HRP detection
Experimental: as §1

BSA [8] = molecular target: T4, BSA (UniProt P02769 25-607); test: ELISA, BSA coated at 50 ng/well, HRP anti-human IgG1 Fc detection
T4 sequence (P02769 25-607 limits assumed): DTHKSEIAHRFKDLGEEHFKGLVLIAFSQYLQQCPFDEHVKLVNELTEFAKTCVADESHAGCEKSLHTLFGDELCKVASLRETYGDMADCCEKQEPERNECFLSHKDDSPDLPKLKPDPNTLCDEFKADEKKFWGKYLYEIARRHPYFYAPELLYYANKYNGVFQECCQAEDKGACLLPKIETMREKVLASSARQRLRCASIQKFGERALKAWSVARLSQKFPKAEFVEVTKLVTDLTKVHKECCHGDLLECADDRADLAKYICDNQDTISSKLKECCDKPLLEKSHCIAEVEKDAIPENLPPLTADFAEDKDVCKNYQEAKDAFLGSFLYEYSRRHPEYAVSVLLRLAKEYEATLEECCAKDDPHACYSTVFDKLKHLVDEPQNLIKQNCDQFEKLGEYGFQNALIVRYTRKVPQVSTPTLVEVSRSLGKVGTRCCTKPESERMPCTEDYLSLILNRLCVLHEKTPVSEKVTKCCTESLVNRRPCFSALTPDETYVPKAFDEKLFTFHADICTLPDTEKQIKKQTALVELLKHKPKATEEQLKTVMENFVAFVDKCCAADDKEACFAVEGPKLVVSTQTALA
Experimental: as §2, §1

Proteinase 3 [9] = molecular target: T2, Proteinase 3; test: ELISA, PR3 coated at 50 ng/well, HRP anti-human IgG1 Fc detection
[10] = molecular target: T3, recombinant human myeloperoxidase …; test: ELISA, rhMPO coated at 50 ng/well, HRP anti-human IgG1 Fc detection
[11] = molecular target: T1, human neutrophil elastase (NE) …; test: ELISA, NE coated at 50 ng/well
Experimental: as §2, §1

BSA [12] = molecular target: T4, BSA; test: ELISA, BSA coated at 50 ng/well
Experimental: as §2, §1

Proteinase 3 [13] = molecular target: T2, Proteinase 3; test: ELISA, PR3 coated at 50 ng/well
Experimental: as §2, §1

[14] = molecular target: T3, recombinant human myeloperoxidase …; test: ELISA, rhMPO coated at 50 ng/well
Experimental: as §2, §1

Proteinase 3 [15] = molecular target: T2, Proteinase 3; test: ELISA, PR3 coated at 50 ng/well, anti-FLAG-HRP detection; remark: listed apart in the source
[16] = molecular target: T3, recombinant human myeloperoxidase …; test: ELISA, rhMPO coated at 50 ng/well, anti-FLAG-HRP detection; remark: listed apart in the source

B1: Fab 1C10 (Fab, V domains shown)
VH: QVQLVESGGGLVKPGGSLRLSCAASGFTFSDYYMSWIRQAPGKGLEWVSYISSSGSTIYYADSVKGRFTISRDNAKNSLYLQMNSLRAEDTAVYYCARVGGDFWSGFLMDVWGQGTTVTVSS
VL: DIQMTQSPSSLSASVGDRVTITCRASQSISSYLNWYQQKPGKAPKLLIYAASSLQSGVPSRFSGSGSGTDFTLTISSLQPEDVAVYYCMQALQTPLTFGQGTKLEIKR
notes: Human Fab from a phage library; also called Clone #1; #1 (Fab)
- IC50 of inhibition of neutrophil elastase enzyme activity [1]: ~5000 nM
- EC50 [2]: 16.3 nM
- EC50 (read off the curve) [3]: ~3 nM
- binding result (Proteinase 3 [4]): no binding (tested: about 7,000 nM)
- Kd [5]: 8.5 nM
- binding result [6]: no binding (tested: about 7,000 nM)

B2: IgG1 1C10 (antibody, V domains shown)
VH: B1 VH
VL: B1 VL
notes: Fab 1C10 converted to a bivalent human IgG1 (heavy and light chains re-cloned into the pcDNA-IgG1 vector, expressed in Expi293 cells); also called IgG 1C10; 1C10 IgG1
- IC50 of inhibition of neutrophil elastase enzyme activity [1]: 1800 nM
- EC50 [7]: 0.4 nM
- Kd [5]: 0.14 nM
- binding result (BSA [8]): no binding (tested: about 200 nM)
- binding result (Proteinase 3 [9]): no binding (tested: about 200 nM)
- binding result [10]: no binding (tested: about 200 nM)

B3: VH-Fc 1D1.43 (Fc fusion)
chain: EVQLVESGGGVVQPGRSLRLSCAASGFTFSNYAMHWVRQAPGKGLEWVAVISYDGSNKYYADSVKGRFTISRDDSTNTLYLQMNNLRAEDTAVYYCAKDLPWEWELDYWGQGTLVTVSS
notes: VH 1D1.43 converted to a bivalent antibody by fusion to human IgG1 Fc; also called VH-Fc ID1.43; not shown: human IgG1 Fc
- IC50 of inhibition of neutrophil elastase enzyme activity; fold change against the VH form (VH 1D1.43) [1]: 10 fold
- EC50 (read off the curve) [11]: ~0.7 nM
- binding result (BSA [12]): no binding (tested: about 1,000 nM)
- binding result (Proteinase 3 [13]): no binding (tested: about 1,000 nM)
- binding result [14]: no binding (tested: about 1,000 nM)
- EC50 [7]: 0.66 nM

B4: VH 1D1.43 (other)
VH: B3 chain
notes: Expressed in E. coli, purified on Ni-NTA and detected with anti-FLAG antibody; also called Clone #2; #2 (VH)
- EC50 [2]: 4.3 nM
- EC50 (read off the curve) [3]: ~10 nM
- binding result (Proteinase 3 [15]): no binding (tested: about 30,000 nM)
- binding result [16]: no binding (tested: about 30,000 nM)
